{
  "source": "paper PMC9135441",
  "key": {"[1]": {"tested_on": "O=C[C@H](O)[C@@H](O)[C@H](O)[C@@H](O)CO", "assay": "purified protein", "conditions": "NADPH"}, "[2]": {"tested_on": "CCCCCC(O)C=CC=O", "assay": "purified protein", "conditions": "NADPH"}},
  "data": [
    {"substance": "aldose reductase (AKR1B1) (Homo sapiens)", "values": [
      {"measurement": "Km", "setting": "[1]", "result": "4260 ± 350", "unit": "µM"},
      {"measurement": "Km", "setting": "[2]", "result": "51 ± 5", "unit": "µM"}
    ]}
  ]
}
